# Test results as given in patent publication US20250326842A1 (BEIGENE SWITZERLAND, published 2025).
# T1: human PVRIG recombinant protein (human, UniProt Q6DKI7 41-171)
# T1 construct: also called human PVRIG protein; recombinant human antigen PVRIG
# T1 sequence: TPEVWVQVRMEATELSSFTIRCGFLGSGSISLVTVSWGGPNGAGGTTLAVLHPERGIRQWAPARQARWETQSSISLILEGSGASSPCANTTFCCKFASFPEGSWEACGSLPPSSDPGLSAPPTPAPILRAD
# T2: human PVRIG expressed on cells (human, UniProt Q6DKI7 41-326)
# T2 construct: Jurkat cells engineered to express human PVRIG; also called hPVRIG-Jurkat; native human PVRIG
# T2 sequence: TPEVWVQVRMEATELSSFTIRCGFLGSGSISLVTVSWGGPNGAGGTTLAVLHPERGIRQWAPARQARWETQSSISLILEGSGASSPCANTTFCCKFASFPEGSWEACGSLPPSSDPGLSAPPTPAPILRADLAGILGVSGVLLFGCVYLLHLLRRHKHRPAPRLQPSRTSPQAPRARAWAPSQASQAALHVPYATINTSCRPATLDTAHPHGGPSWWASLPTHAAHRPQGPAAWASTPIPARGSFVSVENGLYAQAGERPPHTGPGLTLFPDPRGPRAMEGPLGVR
# B1: BGA384 (antibody, human IgG1, kappa)
# heavy: not shown
# light: QIVLTQSPATLSLSPGERATLSCSAGSSVNYMHWFQQKPGQAPRLLIYSTSNLASGVPARFSGSGSGTDYTLTISSLEPEDFAVYYCQQRSSLPFTFGQGTKLEIKRTVAAPSVFIFPPSDEQLKSGTASVVCLLNNFYPREAKVQWKVDNALQSGNSQESVTEQDSKDSTYSLSSTLTLSKADYEKHKVYACEVTHQGLSSPVTKSFNRGEC
# notes: also called BGB-A538; BGA384 WT
# Key:
# [1] = target: Human C1q (human, UniProt P02745 23-245; P02746 28-253; P02747 29-245); assay: ELISA: plate coated with increasing amounts of antibody, human C1q at 8 µg/mL, anti-C1q antibody detection
# Experimental: Human C1q (100 uL total: 8 μg/mL) was incubated in the antibody-coated wells. Bound C1q was detected by a specific anti-C1q monoclonal antibody. ELISA readings at 450 nm were plotted on the y-axis.
# [2] = target: T1, human PVRIG recombinant protein; assay: SPR, antibody captured via anti-human Fc, human PVRIG analyte
# Text: For affinity determination, anti-PVRIG antibodies were captured by anti-human Fc antibodies, and used in the affinity assay based on surface plasmon resonance (SPR) technology.
# [3] = target: T2, human PVRIG expressed on cells; assay: flow cytometry on Jurkat cells expressing human PVRIG, anti-hFc-647 detection [panel B]
# Experimental: To evaluate the binding activity of anti-PVRIG antibodies to native PVRIG on living cells, Jurkat cells were engineered to express human PVRIG. Jurkat cells expressing PVRIG were seeded in 96 well plates and were incubated with serially diluted anti-PVRIG antibodies. […] EC50 values for dose dependent binding to human native PVRIG were determined by fitting the dose response data to the four-parameter logistic model with GraphPad Prism™.
# [4] = target: FcγRI (human, UniProt P12314 16-288, limits assumed); assay: Biacore, KD from kinetic constants (koff/kon)
# Experimental: K¹ (M) values were calculated from the ratio of the kinetic constants as KD=koff/kₒₙ. K2 (M) values were determined by the analyte concentration at which half of the ligands are occupied at equilibrium.
# [5] = target: T2, human PVRIG expressed on cells; assay: cell-based or functional assay
# Sequence of FcγRI (P12314 16-288 limits assumed): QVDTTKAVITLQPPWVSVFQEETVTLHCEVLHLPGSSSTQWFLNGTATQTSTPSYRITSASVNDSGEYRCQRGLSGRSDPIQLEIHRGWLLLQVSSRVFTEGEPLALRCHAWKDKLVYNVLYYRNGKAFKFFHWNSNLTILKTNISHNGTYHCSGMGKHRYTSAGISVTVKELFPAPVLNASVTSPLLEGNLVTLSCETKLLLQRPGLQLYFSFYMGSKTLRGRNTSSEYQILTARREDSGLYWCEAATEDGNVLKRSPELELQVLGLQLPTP
# Sequence of Human C1q (P02745 23-245 limits assumed, chain 1 of 3): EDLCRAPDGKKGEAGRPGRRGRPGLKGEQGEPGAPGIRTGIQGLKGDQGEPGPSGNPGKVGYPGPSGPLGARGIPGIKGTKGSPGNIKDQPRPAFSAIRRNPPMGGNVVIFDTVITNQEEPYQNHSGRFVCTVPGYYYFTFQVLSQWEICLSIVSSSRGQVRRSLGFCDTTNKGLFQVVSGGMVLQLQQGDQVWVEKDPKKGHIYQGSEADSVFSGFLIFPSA
# Sequence of Human C1q (P02746 28-253 limits assumed, chain 2 of 3): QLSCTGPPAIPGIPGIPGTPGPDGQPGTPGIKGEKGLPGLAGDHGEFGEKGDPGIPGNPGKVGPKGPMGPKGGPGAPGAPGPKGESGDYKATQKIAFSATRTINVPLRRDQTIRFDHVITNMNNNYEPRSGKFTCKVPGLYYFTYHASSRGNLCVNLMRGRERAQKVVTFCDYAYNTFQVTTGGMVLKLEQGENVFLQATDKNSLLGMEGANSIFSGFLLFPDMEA
# Sequence of Human C1q (P02747 29-245 limits assumed, chain 3 of 3): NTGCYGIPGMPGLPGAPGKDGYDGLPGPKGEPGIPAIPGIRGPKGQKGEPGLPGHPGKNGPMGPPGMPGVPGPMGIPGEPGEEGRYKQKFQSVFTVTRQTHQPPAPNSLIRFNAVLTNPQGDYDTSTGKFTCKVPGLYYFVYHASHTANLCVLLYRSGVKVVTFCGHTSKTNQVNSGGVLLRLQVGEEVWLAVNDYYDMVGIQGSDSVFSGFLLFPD
binder,measurement,setting,value
B1,EC50 (read off the curve),[1],~2 µg/mL
same,Kd,[2],0.258 nM
same,koff,[2],0.000304 s⁻¹
same,kon,[2],1.18e+06 M⁻¹ s⁻¹
same,EC50 (read off the curve),[3],~0.03 µg/mL
same,Kd,[4],3.26 nM
same,"EC50 of promoter-driven luminescence, JK-NFAT-HuPVRIG with A549/OS8-H cells",[5],0.0377 µg/mL
